In WO2014167826A1 (dated 2014):

Key:
p3-42 = biological target: T1, p3-42; test: sandwich ELISA, 44A3 capture, HRP-2G2 detection
T1 construct: also called Aβ17-42; 17-42
T1 peptide: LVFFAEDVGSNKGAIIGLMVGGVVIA

p3-40 = biological target: T2, p3-40; test: sandwich ELISA, 1A10 capture, HRP-2G2 detection
T2 construct: also called Aβ17-40; 17-40
T2 peptide: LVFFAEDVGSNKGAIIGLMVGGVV

binding result (p3-42): binds
binding result (p3-40): binds
B1: 2G2 antibody (antibody, V domains shown)
VH: QVQLQQPGSELVRPGASVKLSCEASGYTFTSYWIHWVKQRPGQGLEWIGNIYPGSGDTNYDERFKSKATLTVDTSSNTAYMQLISLTSDDSAVYYCTRGKNWGQGTTLTVSS
VL: DIQMNQSPSSLSASLGDTITITCHASQNINVWLSWYQQKPGNIPRLLIYKVSNLHTGVPSRFSGSGSGTGFTLTISSLQPEDIATYYCQQGQSYPLTFGGGTKLEIR
notes: Used unlabelled in the Western blot and conjugated to horseradish peroxidase (HRP) as detection antibody in the sandwich ELISAs; only the CDRs are; also called clone 2G2; 2G2 monoclonal antibody
